{"source": "patent US20230235027A1", "about": "(US Dept. of Health and Human Services, published 2023)", "binders": {"B1": {"name": "NIH-CoVnb-112 (VHH)", "VHH": "DVQLQESGGGLVQPGGSLRLSCAASGLTLDYYAIGWFRQAPGKEREGVSCISSSDGSTYYADSVKGRFTTSRDNAKNTVYLQMNSLKPEDTAVYYCAAVPSTYYSGTYYYTCHPGGMDYWGKGTQVTVSS"}}, "key": {"[1]": {"target": "T1, SARS-CoV-2 RBD mutant V367F (SARS-CoV-2, UniProt P0DTC2 319-541)", "T1 construct": "bought variant RBD; also called SPD-S52H4, ACRO Biosystems", "assay": "competition ELISA, RBD variant coated, competitor biotinylated ACE2"}, "[2]": {"target": "T2, SARS-CoV-2 RBD mutant N354D/D364Y (SARS-CoV-2, UniProt P0DTC2 319-541)", "T2 construct": "bought variant RBD; also called SPD-S52H3, ACRO Biosystems", "assay": "competition ELISA, RBD variant coated, competitor biotinylated ACE2"}, "[3]": {"target": "T3, SARS-CoV-2 RBD mutant W436R (SARS-CoV-2, UniProt P0DTC2 319-541)", "T3 construct": "bought variant RBD; also called #SPD-552H7, ACRO Biosystems", "assay": "competition ELISA, RBD variant coated, competitor biotinylated ACE2"}, "[4]": {"target": "T1, SARS-CoV-2 RBD mutant V367F", "assay": "direct binding to RBD variant (FIG. 7B); format not described further"}, "[5]": {"target": "T2, SARS-CoV-2 RBD mutant N354D/D364Y", "assay": "direct binding to RBD variant (FIG. 7B); format not described further"}, "[6]": {"target": "T3, SARS-CoV-2 RBD mutant W436R", "assay": "direct binding to RBD variant (FIG. 7B); format not described further"}}, "note": "“And” between values parts separate entries of the source, which are not always exact repeats. Equal values may be shown once.", "data": [{"binder": "B1", "values": [{"measurement": "EC50", "setting": "[1]", "value": "~0.02 µg/mL and ~1.11 nM"}, {"measurement": "EC50", "setting": "[2]", "value": "~1.11 nM and ~0.02 µg/mL"}, {"measurement": "EC50", "setting": "[3]", "value": "~0.02 µg/mL and ~1.11 nM"}, {"measurement": "EC50", "setting": "[4]", "value": "~0.01", "unit": "µg/mL"}, {"measurement": "EC50", "setting": "[5]", "value": "~0.01", "unit": "µg/mL"}, {"measurement": "EC50", "setting": "[6]", "value": "~0.01", "unit": "µg/mL"}]}]}
